Experimental data: publication PMC2853374 (2010)

Tests used:
OmpR (Escherichia coli) = OmpR (Escherichia coli) (UniProt P0AA16); assay: FRET; settings: cited from earlier work
[1] = target: OmpR~P (Escherichia coli) (UniProt P0AA16); assay: FRET; settings: cited from earlier work
OmpR = target: T1, OmpR (Escherichia coli, UniProt P0AA16); assay: fluorescence anisotropy
T1 chain: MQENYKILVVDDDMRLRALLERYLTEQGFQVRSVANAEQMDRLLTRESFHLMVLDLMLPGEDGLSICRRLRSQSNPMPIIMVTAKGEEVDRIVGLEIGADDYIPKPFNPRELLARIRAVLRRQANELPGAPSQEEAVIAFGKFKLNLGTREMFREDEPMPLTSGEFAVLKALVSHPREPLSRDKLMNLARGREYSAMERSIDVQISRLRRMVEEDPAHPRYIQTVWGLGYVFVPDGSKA

Molecule: EnvZ-GFP (from UniProt P0AEJ4)
- Kd (OmpR (Escherichia coli)): 500 nM
- Kd [1]: 1600 nM

B1: EnvZc cytoplasmic domain (protein)
chain: FNHMAAGVKQLADDRTLLMAGVSHDLRTPLTRIRLATEMMSEQDGYLAESINKDIEECNAIIEQFIDYLRTGQ
- Kd (OmpR): 425 nM

B2: EnvZc cytoplasmic domain (protein)
chain: B1 chain
modifications: ompC DNA (C1-C2-C3)
- Kd (OmpR): 385 nM
